The target in assay [1] is T1, WHO国际标准降钙素(Human NIBSC code:89/620) (Human) (UniProt P01258).
T1 sequence (peptide, looked up): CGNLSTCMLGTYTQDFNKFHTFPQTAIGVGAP
The assay is described as follows: sandwich chemiluminescence; CT captured by 10B11 magnetic beads, detected by acridinium ester labelled 14D11.

Another assay addresses T2, CT12 (human).
T2 sequence (peptide): DFNKFHT
The assay is described as follows: competition ELISA; antibody pre-incubated with peptide, then on coated CT antigen. Background: ELISA stands for enzyme-linked immunosorbent assay.

The next assay has as its target T3, CT5 (human).
T3 sequence (peptide): TQDFNKFHTF
The assay is described as above.

A further assay addresses T4, CT8 (human).
T4 sequence (peptide): QDFNKFHTF
The assay is described as above.

The next assay has as its target T5, CT10 (human).
T5 sequence (peptide): QDFNKFHTFPQ
Described as above.

The target of another assay is T6, CT3 (human).
T6 sequence (peptide): NKFHTFPQTAIGVGAP
The assay is described as above.

For a further assay, the target named is T7, CT4 (human).
T7 sequence (peptide): YTQDFNKFHTFP
Described as above.

In another assay the target is T8, CT2 (human).
T8 sequence (peptide): LGTYTQDFNKFHTFPQ
Described as above.

The target in the next assay is T9, CT15 (human).
T9 sequence (peptide): DFNKFHTFPQ
The assay is described as above.

A further assay deals with T10, CT7 (human).
T10 sequence (peptide): TQDFNKFHTFPQ
Described as above.

The target in a further assay is T11, CT9 (human).
T11 sequence (peptide): QDFNKFHTFP
Described as above.

Another assay addresses T12, CT11 (human).
T12 sequence (peptide): DFNKFH
The description is as above.

In the next assay the target is T13, CT6 (human).
T13 sequence (peptide): TQDFNKFHTFP
The description is as above.

The target of another assay is T14, CT14 (human).
T14 sequence (peptide): DFNKFHTFP
Described as above.

A further assay has as its target T15, CT13 (human).
T15 sequence (peptide): DFNKFHTF
Described as above.

For a further assay, the target named is T16, CT18 (human).
T16 sequence (peptide): FNKFHT
The description is as above.

A further assay deals with T17, CT1 (human).
T17 sequence (peptide): CGNLSTCMLGTYTQDF
The assay is described as above.

In the next assay the target is T18, CT17 (human).
T18 sequence (peptide): FNKFH
Described as above.

In the next assay the target is T19, CT16 (human).
T19 sequence (peptide): FNKF
The assay is described as above.

Another assay addresses T20, CT43 (human).
T20 sequence (peptide, C-terminal amide (-NH2)): ATAIGVGAP
The assay is described as follows: competition ELISA; antibody pre-incubated with alanine-mutant peptide, then on coated CT antigen.

The next assay deals with T21, CT44 (human).
T21 sequence (peptide, C-terminal amide (-NH2)): QAAIGVGAP
Described as above.

A further assay deals with T22, CT49 (human).
T22 sequence (peptide, C-terminal amide (-NH2)): QTAIGVGAA
The description is as above.

In a further assay the target is T23, CT46 (human).
T23 sequence (peptide, C-terminal amide (-NH2)): QTAIAVGAP
Described as above.

For a further assay, the target named is T24, CT45 (human).
T24 sequence (peptide, C-terminal amide (-NH2)): QTAAGVGAP
The assay is described as above.

For a further assay, the target named is T25, CT48 (human).
T25 sequence (peptide, C-terminal amide (-NH2)): QTAIGVAAP
The assay is described as above.

The target of a further assay is T26, CT47 (human).
T26 sequence (peptide, C-terminal amide (-NH2)): QTAIGAGAP
The description is as above.

The target of another assay is T27, CT21 (human).
T27 sequence (peptide, C-terminal amide (-NH2)): HTFPQTAIGVGAP
The assay is described as follows: competition ELISA; antibody pre-incubated with peptide, then on coated CT antigen.

The next assay deals with T28, CT23 (human).
T28 sequence (peptide, C-terminal amide (-NH2)): IGVGAP
Described as above.

Another assay addresses CT26 (human). The description is as above.
The target of another assay is T29, CT22 (human).
T29 sequence (peptide, C-terminal amide (-NH2)): QTAIGVGAP
The description is as above.

The target in another assay is T30, CT25 (human).
T30 sequence (peptide, C-terminal amide (-NH2)): VGAP
Described as above.

The next assay addresses CT24 (human). The description is as above.

B1: 14D11 (antibody, V domains shown)
VH: EVQLQQSGPELVKPGTSVKIFCMTSGYTFTEFTMHWVKKSPGESLEWIGGIFPDNGGSTYNRKFKDKATLTVDRSSRTAYLELRSLTSEDSAVYYCARYYYNGRAYGIYAMDYWGQGTSVTVSS
VL: DVVLTQSPLSLFVSLGDQVSISCRSSQSLVHSNGNTYLHWYQLKTGQSPKLLIYTVSNRFSGVPDRFSGSGSGTDFTLKINRVEAEDLGVYFCSQSKLVPWTFGGGTKLEIK
In the case of B1, the 发光值 at CT(WHO) 0.125pg/ml in [1] amounted to 1730. For the same molecule, the 发光值 at CT(WHO) 0.25pg/ml in [1] was 2410. The same molecule displayed a 发光值 at CT(WHO) 0.5pg/ml in assay [1] of 4030. This molecule had a 发光值 at CT(WHO) 1pg/ml in assay [1] of 7460. In [1], this molecule gave a 发光值 at CT(WHO) 2pg/ml of 13600. For the same molecule, the competition rate (对照样品OD值-检测样品OD值)/对照样品OD值 in the assay with CT12 (human) is 92%; with CT5 (human) it was 91%; with CT8 (human), 92%; with CT10 (human) it was 95%; in the assay with CT3 (human), 32%; with CT4 (human) it was 99%. Further, the competition rate (对照样品OD值-检测样品OD值)/对照样品OD值 with CT2 (human) came to 99%; with CT15 (human) it was 91%; with CT7 (human) it was 95%; with CT9 (human), 95%; in the assay with CT11 (human), 68%; in the assay with CT6 (human) it was 94%. The competition rate (对照样品OD值-检测样品OD值)/对照样品OD值 is 91% with CT14 (human); 92% with CT13 (human); 30% with CT18 (human); 1% with CT1 (human); -14% with CT17 (human); 11% in the assay with CT16 (human).

B2: 10B11 (antibody, V domains shown)
VH: SDVQLQESGPGLVKPSQSLSLTCTVTGYSITSDYVWNWIRQFPGNKLEWMGYISYSGSTNYNPSLKSRISITRDTSKNQFFLQLNSVTTEDTATYYCAREDWPAWGQ
VL: DIVMTQSQKLMSTSVGDRVSITCKASQNVRSAVAWYQQKPGQSPKTLIYLTSNRHTGVPDRFTGSGSGTDFTLTINNVQSEDLADYFCLQHWNSPLTFGGGTKLEIK
In the case of B2, the competition rate (对照样品OD值-检测样品OD值)/对照样品OD值 with CT43 (human) was determined as 97%; in the assay with CT44 (human), 98%; with CT49 (human) it was 56%; in the assay with CT46 (human), 92%; with CT45 (human) it was 97%; with CT48 (human), 62%. Further, the competition rate (对照样品OD值-检测样品OD值)/对照样品OD值 with CT47 (human) amounted to 85%; in the assay with CT21 (human), 98%; with CT23 (human), 98%; with CT26 (human), 60%; in the assay with CT22 (human) it was 98%; in the assay with CT25 (human), 98%. In addition, the competition rate (对照样品OD值-检测样品OD值)/对照样品OD值 with CT24 (human) came to 98%.

Source of the values: patent publication CN117229395A.
